According to US20260216242A1 (ALMAC DISCOVERY, published 2026):

T1: ALPI His homodimer (human, UniProt P09923 20-503)
T1 construct: Whole entry with His tag; used in ELISA and BLI; also called hALPI
T1 sequence: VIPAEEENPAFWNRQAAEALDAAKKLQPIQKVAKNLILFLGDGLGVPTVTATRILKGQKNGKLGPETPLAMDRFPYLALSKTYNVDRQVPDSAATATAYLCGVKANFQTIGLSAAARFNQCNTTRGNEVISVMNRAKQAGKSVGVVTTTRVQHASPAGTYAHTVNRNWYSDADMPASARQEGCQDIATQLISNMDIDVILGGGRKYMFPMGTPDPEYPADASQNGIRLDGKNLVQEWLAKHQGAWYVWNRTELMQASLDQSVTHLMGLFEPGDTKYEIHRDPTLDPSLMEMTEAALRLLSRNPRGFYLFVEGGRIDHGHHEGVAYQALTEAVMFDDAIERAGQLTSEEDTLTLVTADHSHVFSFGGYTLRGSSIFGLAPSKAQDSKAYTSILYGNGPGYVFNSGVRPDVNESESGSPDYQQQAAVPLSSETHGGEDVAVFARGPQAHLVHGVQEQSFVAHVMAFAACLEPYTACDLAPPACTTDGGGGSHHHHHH

T2: Human ALPL (leucine zipper) (human)
T2 construct: Whole entry: fused with a cysteine stabilised leucine zipper and His tag; also called hALPL
T2 chain: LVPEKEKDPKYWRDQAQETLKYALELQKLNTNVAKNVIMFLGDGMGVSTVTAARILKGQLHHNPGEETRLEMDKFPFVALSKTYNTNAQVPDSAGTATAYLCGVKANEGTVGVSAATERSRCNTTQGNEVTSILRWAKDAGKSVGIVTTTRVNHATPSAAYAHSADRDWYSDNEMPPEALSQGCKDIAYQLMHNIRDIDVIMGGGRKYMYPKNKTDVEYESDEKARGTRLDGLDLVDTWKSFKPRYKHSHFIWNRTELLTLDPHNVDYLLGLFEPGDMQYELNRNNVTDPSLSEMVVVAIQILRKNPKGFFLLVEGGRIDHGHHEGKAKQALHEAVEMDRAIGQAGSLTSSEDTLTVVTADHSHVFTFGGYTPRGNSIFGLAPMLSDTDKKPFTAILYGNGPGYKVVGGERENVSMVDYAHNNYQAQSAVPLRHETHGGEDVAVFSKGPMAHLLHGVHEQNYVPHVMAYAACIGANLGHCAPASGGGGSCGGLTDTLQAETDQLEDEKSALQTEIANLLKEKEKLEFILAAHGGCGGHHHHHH

T3: human ALPL on CHO cells (human, UniProt P05186 18-501)
T3 construct: whole, on cells; also called CHO-ALPL
T3 sequence (looked up): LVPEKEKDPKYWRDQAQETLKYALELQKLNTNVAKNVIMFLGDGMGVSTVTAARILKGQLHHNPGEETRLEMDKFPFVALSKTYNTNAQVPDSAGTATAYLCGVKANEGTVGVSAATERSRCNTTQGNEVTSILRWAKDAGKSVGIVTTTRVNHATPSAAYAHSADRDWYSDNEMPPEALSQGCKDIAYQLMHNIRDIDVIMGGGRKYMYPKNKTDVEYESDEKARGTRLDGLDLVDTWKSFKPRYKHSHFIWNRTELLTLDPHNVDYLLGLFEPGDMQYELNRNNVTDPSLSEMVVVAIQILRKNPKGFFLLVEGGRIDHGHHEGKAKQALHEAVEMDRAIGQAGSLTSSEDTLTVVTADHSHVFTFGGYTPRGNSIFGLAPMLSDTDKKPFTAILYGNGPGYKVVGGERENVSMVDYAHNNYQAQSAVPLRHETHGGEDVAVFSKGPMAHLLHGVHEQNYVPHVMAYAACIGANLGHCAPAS


Legend:
ALPI His homodimer = target: T1, ALPI His homodimer; test: ELISA, antigen coated
Description: ELISA was used to test the binding and specificity of the VHHs. […] Anti-Llama—HRP antibody was used for detection.

[1] = target: T2, Human ALPL (leucine zipper); test: BLI, antigen immobilised
Description: Binding kinetics were determined using the Biolayer Interferometry (BLI) Octet K2 system (Sartorius). […] All assays were conducted in PBS with a plate temperature of 25° C. Ka (M⁻¹s⁻¹), Kd (s⁻¹) and KD (nM) values were determined using Octet Data Analysis High Throughput software (ForteBio) for Biolayer Interferometry.

human ALPP on CHO cells = target: T4, human ALPP on CHO cells (human, UniProt P05187 23-506); test: flow cytometry, CHO cells, KDapp
T4 construct: whole, on cells; also called CHO-ALPP
Description: (§1) Cell surface binding of test agents to hALPP isoforms was characterized in four CHO-ALPP isoform stably transfected cell lines (CHO-ALPP, CHO-ALPPL2, CHO-ALPI and CHO-ALPL) and the resulting KDapp values determined. Adherent cells were detached from tissue culture flasks by incubating with 0.1% EDTA/PBS solution at 37° C. for ~10 minutes or until cells detached easily. Cells were re-suspended in ice-cold PBS/2% FCS in 15 ml tubes and centrifuged at 1700 rpm for 5 mins at 4° C. Supernatant was removed and the cell pellet re-suspended in PBS/2% FCS. […] Cells were incubated with 100 μl of test agents at a range of concentrations, plus controls for 1 hr on ice. The sample plate was centrifuged at 1700 rpm for 5 mins at 4° C. The supernatant was removed, and a wash performed by re-suspending the cell pellets in 0.25 mL of ice-cold PBS/2% FCS using a multichannel pipette. Samples were again centrifuged at 1700 rpm for 5 min at 4° C. Supernatant was removed and two further washes performed as described. After the final wash and centrifugation step, excess liquid was removed by blotting the plate on tissue paper. Binding of VHH (His6 tagged) agents was determined by adding 100 μl of anti-x6His tag Ab (Abcam) per cell pellet sample as appropriate and incubating on ice for 30 mins. Wash steps were performed as described previously. Fitc-anti-mouse antibody (ThermoFisher) was used to detect binding of the VHH (His6 tagged) agents by incubating with the appropriate samples for 30 min on ice in the dark. Wash steps were performed as described previously. All cell pellets were finally re-suspended in […] of ice-cold PBS/2% FCS and left on ice in the dark prior to analysis on a Merck-Millipore Guava EasyCyte HT or Thermo Fisher Attune N×T flow cytometer.

human ALPL on CHO cells = target: T3, human ALPL on CHO cells; test: flow cytometry, CHO cells stably expressing human ALPL; His6-tagged VHH detected with anti-His tag Ab and FITC anti-mouse Ab
Description: C-terminal His tagged VHH proteins were assessed for ALPP, ALPPL2, ALPI and ALPL cell-surface binding by flow cytometry. Binders encompassing different epitope bins were screened on CHO cells stably expressing ALPP, ALPPL2, ALPI or ALPL. High levels of cell-surface proteins expression were confirmed for each of the cell-lines by flow cytometry.
as §1

[2] = target: T5, human ALPPL2 on CHO cells (human, UniProt P10696 20-503); test: flow cytometry, CHO cells, KDapp
T5 construct: whole, on cells; also called CHO-ALPPL2
Description: as §1

T5 sequence (P10696 20-503): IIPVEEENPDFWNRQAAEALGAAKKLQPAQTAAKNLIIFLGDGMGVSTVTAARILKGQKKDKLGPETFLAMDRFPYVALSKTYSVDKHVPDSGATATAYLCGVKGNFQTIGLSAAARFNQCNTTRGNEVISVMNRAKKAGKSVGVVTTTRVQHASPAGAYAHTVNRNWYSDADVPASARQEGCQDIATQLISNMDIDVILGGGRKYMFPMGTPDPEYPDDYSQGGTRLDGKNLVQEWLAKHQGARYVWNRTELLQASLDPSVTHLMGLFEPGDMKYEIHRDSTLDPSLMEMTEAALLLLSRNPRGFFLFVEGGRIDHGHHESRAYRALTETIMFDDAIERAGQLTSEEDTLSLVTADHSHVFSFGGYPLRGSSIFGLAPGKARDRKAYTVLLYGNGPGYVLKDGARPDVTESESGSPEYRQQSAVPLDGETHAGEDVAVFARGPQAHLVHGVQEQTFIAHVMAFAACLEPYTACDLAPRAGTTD
T4 sequence (P05187 23-506): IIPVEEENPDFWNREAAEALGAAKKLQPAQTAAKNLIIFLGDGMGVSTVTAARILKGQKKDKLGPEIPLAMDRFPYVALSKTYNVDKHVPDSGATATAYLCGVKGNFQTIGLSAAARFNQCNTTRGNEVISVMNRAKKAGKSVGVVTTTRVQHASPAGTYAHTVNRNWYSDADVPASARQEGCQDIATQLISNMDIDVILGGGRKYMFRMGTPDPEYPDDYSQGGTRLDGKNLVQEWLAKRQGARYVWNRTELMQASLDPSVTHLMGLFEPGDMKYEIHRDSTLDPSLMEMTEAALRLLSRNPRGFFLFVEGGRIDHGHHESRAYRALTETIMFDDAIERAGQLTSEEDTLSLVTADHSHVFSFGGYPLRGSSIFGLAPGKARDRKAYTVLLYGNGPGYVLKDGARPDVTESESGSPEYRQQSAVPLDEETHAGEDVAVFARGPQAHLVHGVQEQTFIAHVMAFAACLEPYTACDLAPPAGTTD

Binder | binding result (ALPI His homodimer) | binding result [1] | Kd (human ALPP on CHO cells) [nM] | binding result (human ALPL on CHO cells) | Kd [2] [nM]
D10 His (VHH, not shown: small tags and cut ends) VHH: QVQLVESGGGLVQPGGSLRLSCAASGSIFSVNTMGWYRQAPGKQRDLVAVATSGGTIHYADSVKGRFTISRDNAKNTVYLQMNSLKPEDTAVYYCNLVVPYGMIAGDHDYWGQGTKVTVSS | no binding (tested: 500 ng VHH) | no binding | 3.4 | no binding (tested: 350 nM) | 
E10 His (VHH, not shown: small tags and cut ends, also called #265) VHH: QVQLVESGGGLVQAGGSLRLSCAVSGRALSDYNIGWFRQAPGKEREFVARKTWDGSSTRYDDSVKGRFTVSIEDAKNTAYLQMSSLKTEDTAVYYCAAGRYSRARGWEYDYWGQGTQVTVSS | no binding (tested: 500 ng VHH) | no binding | 3.5 | no binding (tested: 350 nM) | 3.8
F05 His (VHH, not shown: small tags and cut ends) VHH: QVQLVESGGGLVQAGGSLRLSCAASGRAFGDYNIGWFRQAPGKEREFVARRTWDGSSTRYDDSVKGRFTVSIDNAKNTAYLQMNSLKTEDTAVYYCAAGRYSRVRGWEYDYWGQGTQVTVSS | no binding (tested: 500 ng VHH) | no binding | 2.3 | no binding (tested: 350 nM) | 1.8
F08 His (VHH, not shown: small tags and cut ends, also called #269) VHH: QVQLVESGGGSVQAGGSLRLSCAASGPSLSNYAMGWFRQAPGKEREFVAGISWGGGRTSYTDSVKGRFTISRDNAKNTVYLQMNNLKPEDTGVYYCAGRYGRGRNVEYEYDYWGQGTQVTVSS |  | no binding | 5 | no binding (tested: 350 nM) | 3.3
D04 His (VHH, not shown: small tags and cut ends) VHH: QVQLVESGGGLVQPGGSLRLSCAASESTFSINVMGWYRQAPGKQRELVATITSGDITNYADSVKGRFTISRDNAENTVYLRTNSLKPEDTAVYYCNARGEYHSGNEYDYWGQGTQVTVSS |  | no binding | 4.2 | no binding (tested: 350 nM) | 19.5

Second part, the binder after the results:

binding result (ALPI His homodimer) | binding result [1] | Kd (human ALPP on CHO cells) [nM] | binding result (human ALPL on CHO cells) | Kd [2] [nM] | Binder
no binding (tested: 500 ng VHH) | no binding | 3.5 | no binding (tested: 350 nM) | 5.1 | C07 His (VHH, not shown: small tags and cut ends, also called #258) VHH: QVQLVESGGGLVQAGESLRLACAASGTIFSGNAVGWYRQAPEKQREWVSSITDYGDTDYAEAVKGRFTISRDNAKNTVYLQMNSLKPEDTAVYYCYVYQRGESEEYWGQGTQVTVSS
no binding (tested: 500 ng VHH) | no binding | 4.6 | no binding (tested: 350 nM) | 4.9 | E06 His (VHH, not shown: small tags and cut ends) VHH: QVHLVESGGGLVQAGGSLRLSCAASRRSFSEYAMGWFRQAPGKEREFVAAIGWSGVIEYADSVKGRFTISRDNAKDTVYLQMNSLKPEDTAVYYCAAGLGIRVVSQTPAYWGQGTQVTVSS
no binding (tested: 500 ng VHH) | no binding | 42.4 | no binding (tested: 350 nM) | 28.3 | A06 His (VHH, not shown: small tags and cut ends, also called #250) VHH: QVHLVESGGGLVQAGGSLRLSCAASGRTFLSMGWFRQAPGKEREFVAAISWTGGSTGYADSVKGRFTISRESDKETMYLQMNSLKPEDTAVYYCAARGDVYYGGDDATRYKYWGQGTQVTVSS
no binding (tested: 500 ng VHH) | no binding | 3.8 | no binding (tested: 350 nM) | 6 | A05 His (VHH, not shown: small tags and cut ends, also called #249) VHH: QVQLVESGGGLVQAGASLTLSCAASGFTFNTRSIVWFRQAPGKEREAVSCISKVAGSTYYGDSVQGRFSSSTDNAKNTVSLQMNSLKPEDTAVYTCAASFAPNCYGWSVAANMEYWGEGTMVTVSS
